From publication PMC6544907 come the findings set out here.

For test [1], the target named is human plasma plasminogen (human). The test is described as follows: SPR.
Test [2] concerns the target PAM_(SS1574), recombinant full-length PAM of GAS strain SS1574 (emm224) (Streptococcus pyogenes (GAS) strain SS1574). The test is described as follows: AUC.
Test [3] has as its target PAM_(NS88.2), recombinant full-length PAM of GAS strain NS88.2 (emm98.1) (Streptococcus pyogenes (GAS) strain NS88.2). The test is described as follows: AUC.
The target in test [4] is PAM_(SS1448), recombinant full-length PAM of GAS strain SS1448 (emm86.2) (Streptococcus pyogenes (GAS) strain SS1448). The test is described as follows: AUC.
For test [5], the target named is PAM_(SS1572), recombinant full-length PAM of GAS strain SS1572 (emm223) (Streptococcus pyogenes (GAS) strain SS1572). Description: AUC.
For test [6], the target named is PAM_(NS223), recombinant full-length PAM of GAS strain NS223 (emm91) (Streptococcus pyogenes (GAS) strain NS223). The test is described as follows: AUC.
Test [7] deals with PAM on cells of GAS strain SS1574 (Streptococcus pyogenes (endogenous in strain SS1574)) (UniProt P49054). Description: flow cytometry on cells.
Test [8] concerns the target PAM_(NS455), recombinant full-length PAM of GAS strain NS455 (emm52) (Streptococcus pyogenes (GAS) strain NS455). Description: AUC.

For “PAM_(AP53_short) (residues 42-175 of PAM_(AP53)) (domain or fragment)”, the koff (in general, the rate constant with which the complex falls apart) in test [1] stood at 0.00077 s⁻¹.
For the substance “PAM_(SS1574), recombinant full-length PAM of GAS strain SS1574 (emm224) (natural protein)”, in test [1], the Kd (commonly a measure of binding affinity in units of concentration) is 1.1 nM and the off-rate (koff) was determined as 0.00011 s⁻¹. Also, the stoichiometry N (in general, the number of molecules, sites or subunits per partner or assembly) in test [2] was found to be 2.
Regarding “PAM_(NS88.2), recombinant full-length PAM of GAS strain NS88.2 (emm98.1) (natural protein)”, in test [1], the Kd was determined as 1.2 nM and the koff is 0.00023 s⁻¹. Moreover, the stoichiometry N in test [3] was 2.
On to “PAM_(SS1448), recombinant full-length PAM of GAS strain SS1448 (emm86.2) (natural protein)”, for which, in test [1], the Kd came out at 28 nM; the off-rate constant (koff) was 0.001 s⁻¹; the kon (as a rule, the rate constant with which the complex forms) turned out to be 36000 M⁻¹ s⁻¹. The stoichiometry N in test [4] came to 2.
As to “PAM_(AP53), recombinant full-length PAM of GAS strain AP53 (emm53) (natural protein)”, in test [1], the Kd was determined as 1.6 nM, the koff was found to be 0.00056 s⁻¹ and the kon was found to be 340000 M⁻¹ s⁻¹.
In test [1], “PAM_(SS1572), recombinant full-length PAM of GAS strain SS1572 (emm223) (natural protein)” displayed a Kd of 4.9 nM, a koff of 0.00059 s⁻¹ and a kon of 120000 M⁻¹ s⁻¹. Besides, the stoichiometry N in test [5] turned out to be 2.
Take “PAM_(NS223), recombinant full-length PAM of GAS strain NS223 (emm91) (natural protein)”: in test [1], the Kd came to 1.4 nM, the koff turned out to be 0.00033 s⁻¹ and the kon is 240000 M⁻¹ s⁻¹. The stoichiometry N in test [6] is 2.
In test [7], “human plasma plasminogen (natural protein)” returned an amount of hPg bound, fold of strain AP53 below 2 fold.
In test [1], “PAM_(NS455), recombinant full-length PAM of GAS strain NS455 (emm52) (natural protein)” yielded a koff of 0.00017 s⁻¹ and a kon of 540000 M⁻¹ s⁻¹. Moreover, the stoichiometry N in test [8] is 2.
